{"source": "paper PMC6642096", "about": "(Nature Communications, 2019)", "binders": {"B1": {"name": "vIRF-1-SmB (natural protein)", "chain": "MDPGQRPNPFGAPGAIPKKPCLSQGSPGTSGSGAPCDEPSRSESPGEGPSGTGGSAAAGDITRQAVVAAITEWSRTRQLRISTGASEGKASIKDWIVCQVNSGKFPGVEWEDEERTRFRIPVTPLADPCFEWRRDGELGVVYIRERGNMPVDASFKGTRGRRRMLAALRRTRGLQEIGKGISQDGHHFLVFRVRKPEEEQCVECGVVAGAVHDFNNMARLLQEGFFSPGQCLPGEIVTPVPSCTTAEGQEAVIDWGRLFIRMYYNGEQVHELLTTSQSGCRISSALRRDPAVHYCAVGSPGQVWLPNVPNLACEIAKRELCDTLDACAKGILLTSSCNGIFCVCYHNGPVHFIGNTVPPDSGPLLLPQGKPTRIFNPNTFLVGLANSPLPAPSHVTCPLVKLWLGKPVAVGKLEPHAPSPRDFAARCSNFSDACVVLEIMPKPLWDAMQ", "notes": "also called vIRF-1-SmB (NanoBiT Small BiT fusion); source: 293T, transiently transfected, in cells; not shown: Small BiT (SmB), C-terminal, kept"}}, "molecular_target": "T1, LgB-NIX (UniProt O60238 1-219)", "T1 construct": "also called NIX (NanoBiT Large BiT fusion); not shown: Large BiT (LgB), N-terminal, kept", "T1 sequence (O60238 whole entry, the tested form may be a part)": "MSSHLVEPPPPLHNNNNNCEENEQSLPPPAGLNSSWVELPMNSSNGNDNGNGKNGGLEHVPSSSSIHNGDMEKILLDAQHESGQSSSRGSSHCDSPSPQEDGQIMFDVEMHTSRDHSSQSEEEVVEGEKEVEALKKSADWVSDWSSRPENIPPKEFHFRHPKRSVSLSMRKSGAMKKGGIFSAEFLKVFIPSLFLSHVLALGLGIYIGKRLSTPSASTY", "assay": "split reporter (BiFC, NanoBiT)", "conditions": "partners not purified"}
{"binder": "B1", "values": [{"measurement": "fold luminescence against HT-SmB with LgB-NIX", "value": 10, "unit": "fold"}]}
